Laboratory results from patent publication US20180222961A1 (IMMATICS BIOTECHNOLOGIES, published 2018).

Key:
HLA-A*03:01 = target: T1, HLA-A*03:01 (human); test: UV-exchange b2m ELISA; exchange-yield grade
T1 construct: also called peptide-receptive MHC molecules
Text: (§1) Candidate peptides for T cell based therapies according to the present invention were further tested for their MHC binding capacity (affinity). The individual peptide-MHC complexes were produced by UV-ligand exchange, where a UV-sensitive peptide is cleaved upon UV-irradiation, and exchanged with the peptide of interest as analyzed. Only peptide candidates that can effectively bind and stabilize the peptide-receptive MHC molecules prevent dissociation of the MHC complexes. To determine the yield of the exchange reaction, an ELISA was performed based on the detection of the light chain (β2m) of stabilized MHC complexes. The assay was performed as generally described in Rodenko et al. (Rodenko et al., 2006).
(§2) 96 well MAXISorp plates (NUNC) were coated over night with 2 ug/ml streptavidin in PBS at room temperature, washed 4× and blocked for 1 h at 37° C. in 2% BSA containing blocking buffer. Refolded HLA-A*02:01/MLA-001 monomers served as standards, covering the range of 15-500 ng/ml. Peptide-MHC monomers of the UV-exchange reaction were diluted 100-fold in blocking buffer. Samples were incubated for 1 h at 37° C., washed four times, incubated with 2 ug/ml HRP conjugated anti-β2m for 1 h at 37° C., washed again and detected with TMB solution that is stopped with […]. Absorption was measured at 450 nm. Candidate peptides that show a high exchange yield (preferably higher than 50%, most preferred higher than 75%) are generally preferred for a generation and production of antibodies or fragments thereof, and/or T cell receptors or fragments thereof, as they show sufficient avidity to the MHC molecules and prevent dissociation of the MHC complexes.

HLA-B*07:02 = target: T2, HLA-B*07:02 (human); test: UV-exchange b2m ELISA; exchange-yield grade
T2 construct: also called peptide-receptive MHC molecules
Text: as §1, §2

Row | Binder | peptide exchange yield (HLA-A*03:01) [%] | peptide exchange yield (HLA-B*07:02) [%]
1 | RLFTSPIMTK | 50 to 75 | 
2 | RPRALRDLRIL |  | 50 to 75
3 | MPSLSEAMTSF |  | 50 to 75
4 | SPGAQRTFFQL |  | 50 to 75
5 | NPDLRRNVL |  | 50 to 75
6 | SPNEFYFTV |  | 50 to 75
7 | RTEEVLLTFK | 20 to 50 | 
8 | SPMHDRWTF |  | 50 to 75
9 | SPSPVPTTL |  | 50 to 75
10 | SPSTIKLTM |  | 50 to 75
11 | VLADSVTTK | 20 to 50 | 
12 | SPTHVTQSL |  | 50 to 75
13 | MPLTTGSQGM |  | 20 to 50
14 | YPGLRGSPM |  | 50 to 75
15 | SPAPLKLSRTPA |  | 20 to 50
16 | PGGTRQSL |  | 10 to 20
17 | LPWDTSTTLF |  | 50 to 75
18 | SSSSATISK | 20 to 50 | 
19 | SPALHIGSV |  | 50 to 75
20 | SPAETSTNM |  | 50 to 75
21 | TPLATTQRF |  | 20 to 50
22 | TPSVVTEGF |  | 20 to 50
23 | RPRSPAGQVA |  | 50 to 75

Row | Binder | peptide exchange yield (HLA-A*03:01) [%] | peptide exchange yield (HLA-B*07:02) [%]
24 | RLQEWKALK | 50 to 75 | 
25 | RPRSPAGQVAAA |  | 50 to 75
26 | GTYAHTVNR | 50 to 75 | 
27 | GAYAHTVNR | 50 to 75 | 
28 | NVLTSTPAF |  | 20 to 50
29 | KPIESTLVA |  | 50 to 75
30 | SPLVTSHIM |  | 50 to 75
31 | IPTYGRTF |  | 50 to 75
32 | SVLTSSLVK | 20 to 50 | 
33 | ISYSGQFLVK | 50 to 75 | 
34 | VTADHSHVF | 10 to 20 | 
35 | LYVDGFTHW |  | 20 to 50
36 | RSRLNPLVQR | 20 to 50 | 
37 | AIKVIPTVFK | 20 to 50 | 
38 | MPNSAIPFSM |  | 50 to 75
39 | APSTPRITTF |  | 50 to 75
40 | NPIGDTGVKF |  | 50 to 75
41 | SPSVSSNTY |  | 20 to 50
42 | GPFPLVYVL |  | 50 to 75
43 | QIHDHVNPK | 20 to 50 | 
44 | APLKLSRTPA |  | 50 to 75
45 | KTLELRVAY | 20 to 50 | 
46 | TPLATTQRFTY |  | 20 to 50

Row | Binder | peptide exchange yield (HLA-A*03:01) [%] | peptide exchange yield (HLA-B*07:02) [%]
47 | TPTKETVSL |  | 50 to 75
48 | VTDLISPRK | 20 to 50 | 
49 | RLFSWLVNR | 50 to 75 | 
50 | AAFVPLLLK | 20 to 50 | 
51 | KTFTIKRFLAK | 20 to 50 | 
52 | FPFNPLDF |  | 20 to 50
53 | HTFGLFYQR | 20 to 50 | 
54 | SPVPVTSLF |  | 50 to 75
55 | SPAMTTPSL |  | 50 to 75
56 | TAKTPDATF |  | 20 to 50
57 | IPRNPPPTLL |  | 50 to 75
58 | SAAPPSYFR | 20 to 50 | 
59 | LPEQTPLAF |  | 20 to 50
60 | RPRSPAGQVAA |  | 50 to 75
61 | VPTPVFPTM |  | 20 to 50
62 | RVFTSSIKTK | 20 to 50 | 
63 | NPSSTTTEF |  | 50 to 75
64 | AVFNPRFYRTY | 20 to 50 | 
65 | GTNTVILEY | 50 to 75 | 
66 | RLKGDAWVYK | 50 to 75 | 
67 | AAASPLLLL |  | 20 to 50
